Values quoted from earlier work in US5998408A, “Triterpene derivatives with immunosuppressant activity” (Merck & Co., Inc., priority 1997, dated 1999).
pIC50: −log10 of the molar value.

Target: T1, Kv 1.3 channels (CHO cells transfected with Kv 1.3 channels) (Homo sapiens, UniProt P22001)
T1 construct: expressed in transfected cells; host or cells: CHO cells
Settings: stated property of the reference blocker used to set the efflux window

T1 sequence (P22001 whole entry): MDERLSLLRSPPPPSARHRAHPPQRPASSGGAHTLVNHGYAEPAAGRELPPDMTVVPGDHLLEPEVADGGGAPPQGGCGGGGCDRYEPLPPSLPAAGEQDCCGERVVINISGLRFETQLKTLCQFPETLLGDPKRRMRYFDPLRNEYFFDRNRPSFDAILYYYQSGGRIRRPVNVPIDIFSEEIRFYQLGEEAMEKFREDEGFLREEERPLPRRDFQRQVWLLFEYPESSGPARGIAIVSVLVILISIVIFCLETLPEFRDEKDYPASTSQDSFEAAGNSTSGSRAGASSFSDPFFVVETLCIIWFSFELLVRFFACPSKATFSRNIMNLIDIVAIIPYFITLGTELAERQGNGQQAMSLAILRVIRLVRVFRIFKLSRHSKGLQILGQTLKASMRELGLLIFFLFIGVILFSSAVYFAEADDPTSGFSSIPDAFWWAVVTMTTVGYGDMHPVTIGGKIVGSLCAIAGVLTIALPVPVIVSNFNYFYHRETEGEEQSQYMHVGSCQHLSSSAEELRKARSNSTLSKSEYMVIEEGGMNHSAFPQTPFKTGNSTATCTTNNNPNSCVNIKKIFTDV

For “margatoxin (TIINVKCTSPKQCLPPCKAQFGQSAGAKCMNGKCKCYPH; UniProt P40755 1-39, looked up)”, the pIC50 is listed as 10.00.
